Reference: paper PMC1817651, “Ets-2 and C/EBP-beta are important mediators of ovine trophoblast Kunitz domain protein-1 gene expression in trophoblast”

B1: TKDP-1/4 (dsDNA)
DNA 1: CTGATCTCACGACTCAGCCAGAATATTAAAAGCTC
DNA 2: GAGCTTTTAATATTCTGGCTGAGTCGTGAGATCAG
B2: TKDP-1/6 (dsDNA)
DNA 1: AGGAGCCCTCCTGCAAGGCC
DNA 2: GGCCTTGCAGGAGGGCTCCT
B3: TKDP-1/5 (dsDNA)
DNA 1: CAGTGTGTCCATCCTCAGCATCCTCAGGAGCCCTC
DNA 2: GAGGGCTCCTGAGGATGCTGAGGATGGACACACTG
B4: TKDP-1/1 (dsDNA)
DNA 1: ACAGATGCAGGAGGCATGGG
DNA 2: CCCATGCCTCCTGCATCTGT
B5: TKDP-1/2 (dsDNA)
DNA 1: CATGGGTAGGTAGGGAGGTTATGCAATAAACAGGACTGACTCAACTCCTCC
DNA 2: GGAGGAGTTGAGTCAGTCCTGTTTATTGCATAACCTCCCTACCTACCCATG
B6: TKDP-1/3 (dsDNA)
DNA 1: TCCTCCCCTTGCCCACTCCCCTCCTTATCACCTGATCTCACGACTCA
DNA 2: TGAGTCGTGAGATCAGGTGATAAGGAGGGGAGTGGGCAAGGGGAGGA
B7: Ets-2 consensus (dsDNA)
DNA 1: CTAGGACCGGAAGTGGGAGT
DNA 2: ACTCCCACTTCCGGTCCTAG

biological target: T1, ovEts-2-GST fusion (Ovis aries, UniProt A0ACI6RFA5 364-444); test: competition EMSA; 250-fold excess vs N1; EMSA: 35 fmol probe, 2 ug Ets-2-GST or 10 ug JEG-3 extract, buffer per cited ref 23; pull-down: extract in 25 mM Tris-HCl pH 7.5, 150 mM NaCl, 0.5% Triton X-100, 0.5 mM DTT, 4 C overnight; conditions: protein: recombinant; tags: GST; blunt; only sense strand given
T1 sequence (A0ACI6RFA5 entry or part of it): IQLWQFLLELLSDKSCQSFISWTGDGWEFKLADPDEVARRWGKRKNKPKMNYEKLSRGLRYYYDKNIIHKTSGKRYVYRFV

Binder | binding result
B1 | no binding
B2 | no binding
B3 | no binding
B4 | no binding
B5 | no binding
B6 | no binding

biological target: T1, ovEts-2-GST fusion; test: EMSA; anti-Ets-2 supershift; EMSA: 35 fmol probe, 2 ug Ets-2-GST or 10 ug JEG-3 extract, buffer per cited ref 23; pull-down: extract in 25 mM Tris-HCl pH 7.5, 150 mM NaCl, 0.5% Triton X-100, 0.5 mM DTT, 4 C overnight; conditions: protein: recombinant; tags: GST; label: 32P; blunt; only sense strand given

Binder | binding result
B7 | binds
